Patent US20230183351A1 (AVENCELL EUROPE, published 2023)

Molecular target: T1, PD-L1 on PD-L1-positive target cell lines DU-145 and U-251 (human, UniProt Q9NZQ7 19-290)
T1 construct: also called Programmed death ligand 1; CD274
Assay: flow cytometry on DU-145 and U-251 cells, shown as % binding of max over time at 4 C or 37 C
Method: Data is shown as % binding of max by normalizing the obtained MFI to the highest MFI measured. […] Data is shown as mean ± SD of one experiment measured in technical triplicates.
Subsequently, stained target cells were incubated for indicated time points at either 4° C. or 37° C. Binding of PD-L1-specific TMs was analyzed via flow cytometry using an PE-labeled α-His Ab.

T1 sequence (Q9NZQ7 19-290): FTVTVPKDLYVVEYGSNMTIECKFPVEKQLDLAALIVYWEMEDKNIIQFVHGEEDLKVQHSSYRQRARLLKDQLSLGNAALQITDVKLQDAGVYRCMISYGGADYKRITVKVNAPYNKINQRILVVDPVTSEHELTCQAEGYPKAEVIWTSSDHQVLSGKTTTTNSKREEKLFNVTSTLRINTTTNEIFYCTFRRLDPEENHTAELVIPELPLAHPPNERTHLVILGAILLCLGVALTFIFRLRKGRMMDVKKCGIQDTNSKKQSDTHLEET

B1: TM-PD-L1-scFv5 (scFv)
scFv: GQVQLVQSGAEVKKPGASVKVSCKASGYTFTDYGFSWVRQAPGQGLEWMGWITAYNGNTNYAQKLQGRVTMTTDTSTSTVYMELRSLRSDDTAVYYCARDYFYGMDVWGQGTTVTVSSGGGGSGGGGSGGGGSEIVLTQSPATLSLSPGERATLSCRASQSVSSYLVWYQQKPGQAPRLLIYDASNRATGIPARFSGSGSGTDFTLTISSLEPEDFAVYYCQQRSNWPRTFGQGTKVEIKAAAKPLPEVTDEYARGGPGGGGSHHHHHHHH
notes: also called TMPD-L1v5
  binding result: binds
